Holding throughout (test): BLI
In general terms: In BLI a coated tip is dipped into the sample, and binding shifts an interference pattern.

Test [1] addresses N-terminal methionine peptide (X-GMMSC, X = methionine).
Test [2] addresses N-terminal leucine peptide (X-GMMSC, X = leucine).
Test [3] deals with T1, Methionine aminopeptidase from E. coli (E. coli, UniProt P0AE18 1-264).
T1 sequence: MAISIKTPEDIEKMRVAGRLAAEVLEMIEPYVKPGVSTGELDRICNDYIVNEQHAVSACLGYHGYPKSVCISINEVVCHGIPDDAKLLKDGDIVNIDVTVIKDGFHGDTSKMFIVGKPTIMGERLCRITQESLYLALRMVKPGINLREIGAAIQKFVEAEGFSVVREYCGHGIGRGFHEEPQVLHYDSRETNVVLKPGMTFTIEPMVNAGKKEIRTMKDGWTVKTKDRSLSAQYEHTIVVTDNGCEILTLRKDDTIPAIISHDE

Where no end group is shown, it is not given here. The star is where a group is joined. BMPH = NNC(=O)CCN1C(=O)CC(*)C1=O

As to “eLAP, designed leucine aminopeptidase derived from E. coli methionine aminopeptidase (from UniProt P0AE18 4-264) (enzyme)”, in test [1], the Kd came to 19.1 µM, the koff worked out at 0.00408 s⁻¹ and the association rate constant (kon) is 214 M⁻¹ s⁻¹. In test [2], the Kd is 826 nM, the koff stood at 0.00142 s⁻¹ and the kon came to 1720 M⁻¹ s⁻¹.

In test [3], MGMMSC(BMPH) [N-terminal methionine peptide (X-GMMSC, X = methionine)] yielded a Kd of 2.65 µM, a dissociation rate constant (koff) of 0.00489 s⁻¹ and a kon of 1850 M⁻¹ s⁻¹.

In test [3], LGMMSC(BMPH) [N-terminal leucine peptide (X-GMMSC, X = leucine)] gave a Kd of 54.2 µM, a koff of 0.0147 s⁻¹ and a kon of 271 M⁻¹ s⁻¹.

For orientation: Kd means the equilibrium constant for the complex coming apart. The koff is a measure of how fast the partners let go of each other. A higher koff goes with fast dissociation. What is called kon is the rate constant with which the complex forms. Read a low kon as slow association.

The record behind these values is article PMC3945839 (Protein Science : A Publication of the Protein Society, 2014).
